Measured values from paper PMC3029384, “Dimeric SecA Couples the Preprotein Translocation in an Asymmetric Manner” (PLoS ONE, 2011).

B1: His6-tagged SecB (natural protein, Escherichia coli)
chain: MSEQNNTEMTFQIQRIYTKDISFEAPNAPHVFQKDWQPEVKLDLDTASSQLADDVYEVVLRVTVTASLGEETAFLCEVQQGGIFSIAGIEGTQMAHCLGAYCPNILFPYARECITSMVSRGTFPQLNLAPVNFDALFMNYLQQQAGEGTEEHQ
notes: SecB chaperone, Escherichia coli; The tag is named explicitly only in Materials and for the SecB/proOmpA assembly; also called SecB tetramer; tetrameric SecB
B2: proOmpA (natural protein, Escherichia coli, UniProt P0A910 1-346, looked up)
chain: MKKTAIAIAVALAGFATVAQAAPKDNTWYTGAKLGWSQYHDTGFINNNGPTHENQLGAGAFGGYQVNPYVGFEMGYDWLGRMPYKGSVENGAYKAQGVQLTAKLGYPITDDLDIYTRLGGMVWRADTKSNVYGKNHDTGVSPVFAGGVEYAITPEIATRLEYQWTNNIGDAHTIGTRPDNGMLSLGVSYRFGQGEAAPVVAPAPAPAPEVQTKHFTLKSDVLFNFNKATLKPEGQAALDQLYSQLSNLDPKDGSVVVLGYTDRIGSDAYNQGLSERRAQSVVDYLISKGIPADKISARGMGESNPVTGNTCDNVKQRAALIDCLAPDRRVEIEVKGIKDVVTQPQA
notes: Precursor form (unfolded, diluted out of 6 M urea); also called preprotein; source: kept in 6 M urea before dilution

Key:
[1] = target: SecA (Escherichia coli) (UniProt P10408); details: cited from earlier work
[2] = target: the molecule itself; assay: SEC; SecA monomer 3 uM and SecB monomer 30 uM incubated 1 h at 4 °C in buffer A (20 mM HEPES-KOH, 30 mM KCl, 1 mM DTT, pH 7.4); Superdex G200 analytical column at 4 °C; peak fraction checked by SDS-PAGE
[3] = target: B1; assay: SEC; SecA monomer 3 uM and preformed SecB/proOmpA 2 uM incubated 1 h at 4 °C in buffer A (20 mM HEPES-KOH, 30 mM KCl, 1 mM DTT, pH 7.4); Superdex G200 analytical column at 4 °C; fractions checked by SDS-PAGE; details: both partners purified

SecA (from UniProt P10408)
Kd [1]: 1000 nM

B1
stoichiometry N [2]: 4

B2
stoichiometry N [3]: 1 proOmpA per SecB tetramer
